The source of these data is article PMC5481743, “Cryptic indole hydroxylation by a non-canonical terpenoid cyclase parallels bacterial xenobiotic detoxification” (Nature Communications, 2017).

Series [1] addresses XiaF (recombinant, N-terminal histidine-tag, construct pET26b(+)-xiaF used for crystallization) (Streptomyces sp. HKI0576). Briefly: crystal structure; hanging drop vapour diffusion at 20 °C; XiaF apo (5LVU), with FADH2 (5LVW), with FADH2 and glycerol (5MR6); molecular replacement.
Series [2] concerns the target untagged XiaF (42.4 kDa, tag cleaved with thrombin) (Streptomyces sp. HKI0576). Put plainly: SEC; HiLoad 16/600 Superdex 200 prep grade; 20 mM Tris-HCl pH 8.0, 100 mM NaCl; calibrated with Gel Filtration Calibration Kits.
The target in series [3] is His-tagged XiaF (44.5 kDa, from pXU520) (Streptomyces sp. HKI0576). The series is described as above.
The target of series [4] is T1, XiaF (Streptomyces sp. HKI0576, UniProt I7IIA9).
T1 construct: full-length (Met1-Leu397), N-terminal His-tag (pET-28b, thrombin-cleavable; pET-26b with MHHHHHH for crystals); from E. coli; homotetramer
Put plainly: HPLC-HRMS biotransformation assay. Particulars: 100 uM substrate, 500 uM NADH, 50 uM FAD, flavin reductase XiaP, pH 8.0, 28 °C. The series is classed as biochemical.

Series [5] concerns the molecule itself. Briefly: SEC; HiLoad 16/600 Superdex 200 prep grade; 100 mM NaH2PO4, 100 mM Na2HPO4, 2% glycerol, pH 7.0. Background: Size exclusion chromatography separates by hydrodynamic size, large species first.

T1 sequence (I7IIA9 entry or part of it): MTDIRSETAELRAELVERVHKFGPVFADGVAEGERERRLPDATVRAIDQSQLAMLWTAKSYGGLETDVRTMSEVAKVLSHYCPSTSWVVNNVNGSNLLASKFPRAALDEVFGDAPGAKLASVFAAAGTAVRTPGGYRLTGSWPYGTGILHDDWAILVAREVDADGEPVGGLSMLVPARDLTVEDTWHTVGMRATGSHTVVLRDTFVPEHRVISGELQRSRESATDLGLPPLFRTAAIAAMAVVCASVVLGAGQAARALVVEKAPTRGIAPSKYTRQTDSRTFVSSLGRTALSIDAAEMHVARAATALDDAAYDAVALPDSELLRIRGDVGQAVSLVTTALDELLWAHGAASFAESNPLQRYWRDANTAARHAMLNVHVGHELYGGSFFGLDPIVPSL

The stoichiometry N is a count of units in the complex or per binding partner. “XiaF (recombinant, N-terminal histidine-tag, construct pET26b(+)-xiaF used for crystallization) (enzyme)”: the stoichiometry N in series [1] was 4.
As to “untagged XiaF (42.4 kDa, tag cleaved with thrombin) (enzyme)”, the stoichiometry N in series [2] stood at 4.
In turn, “His-tagged XiaF (44.5 kDa, from pXU520) (enzyme)” yielded a stoichiometry N in series [3] of 4.
On to `C=C1CC[C@@H]2[C@](C)(CC[C@H](O)[C@@]2(C)C(=O)O)[C@H]1Cc1c[nH]c2ccccc12` [compound 2, indosespene], for which the HPLC-HRMS biotransformation assay result in series [4] is “we found that XiaP substantially increases the performance of XiaF”.

B1: His-tagged XiaP (enzyme, Streptomyces sp. HKI0576)
chain: MIDRETFVELMSGVCAPVTVVTTATADGRPHGSTVSSFTSLSLDPPLASFALDRGSGLLPHLHQGARVGVNILAAHQHALAASFARRCPGTGSKFDGITWTTRAGLPHLPDSAGWTAGRVERHVPGGDHVLLVISVEEAHSTPAAPLVYLRRSFGTYSGLPAGG
notes: XiaP, NADH:flavin oxidoreductase of Streptomyces sp; HKI0576; also called flavin reductase XiaP; flavoenzyme-reductase; source: E. coli BL21-CodonPlus(DE3)-RP (pET28c-xiaP), purified (Ni-NTA, SEC)
On to B1, for which, in series [5], the “stoichiometry N” value amounted to 2.
